This test addresses nucleosome: recombinant Xenopus laevis histone octamer assembled on 601 DNA with flanking DNA (Xenopus laevis).

On to “mutant INO80 complex purified from yeast lacking Arp5 (from UniProt P53115 1-1489; P40154 1-320; Q12386 1-881)”, for which the nucleosome sliding, native gel remodeling assay, kobs; 601 + 80 WT nucleosome turned out to be 0.006 min⁻¹.

(Values after PMC9351570.)
